Experimental data from patent US20250135039A1, “INHIBITOR-RESISTANT MGMT MODIFICATIONS AND MODIFICATION OF MGMT-ENCODING NUCLEIC ACIDS” (Ensoma, Inc., priority 2022, published 2025).

System: U251 human glioblastoma cell line
Test: in vitro FM-HCR assay of MGMT activity (mPlum O^6MeG reporter plasmid)
Type: cell-based
Settings: for Reporter expression (%) mean, O^6BG: 100 μM O^6BG; for Reporter expression (%) mean, O^6BG / Reporter expression (%) mean, DMSO: U251 cells, flow cytometry 24 h after transfection, damaged/undamaged reporter, inversely related to MGMT activity; for Reporter expression (%) mean, DMSO: 0.1% DMSO; for MGMT activity (a.u.) DMSO / MGMT activity (% of WT) DMSO: DMSO condition; for MGMT activity (a.u.) DMSO / MGMT activity (a.u.) O^6BG: determined from percent reporter expression; for MGMT activity (% of WT) DMSO / MGMT activity (% of WT) O^6BG: relative to wild-type MGMT in same condition; for Relative MGMT activity (%): MGMT activity (a.u.) in O^6BG divided by DMSO x 100, higher values indicate resistance; for MGMT activity (a.u.) O^6BG / MGMT activity (% of WT) O^6BG: O^6BG condition; for Ratio percent reporter expression (O^6BG/DMSO): lower values indicate resistance to O^6BG; for O^6BG resistance relative to WT (%): percentage difference in relative MGMT activity between variant and wild-type MGMT
Summary of the method: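 U251 cells transfected with MGMT variant plasmid, mPlum O^6MeG reporter (or undamaged mPlum plasmid) and BFP control, in 100 μM O^6BG or 0.1% DMSO; flow cytometry at 24 h. mPlum count×intensity normalized to BFP; percent reporter expression = damaged/undamaged ×100, inversely related to MGMT activity.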

B1: S159Y: MGMT polypeptide with mutation S159Y (protein)
chain: MDKDCEMKRTTLDSPLGKLELSGCEQGLHEIKLLGKGTSAADAVEVPAPAAVLGGPEPLMQCTAWLNAYFHQPEAIEEFPVPALHHPVFQQESFTRQVLWKLLKVVKFGEVISYQQLAALAGNPKAARAVGGAMRGNPVPILIPCHRVVCSSGAVGNYYGGLAVKEWLLAHEGHRLGKPGLGGSSGLAGAWLKGAGATSGSPPAGRN
  Reporter expression (%) mean, O^6BG: 142.7%
  Reporter expression (%) mean, DMSO: 26.0%
  MGMT activity (a.u.) DMSO: 3.85 a.u.
  MGMT activity (% of WT) DMSO: 71.2 % of WT
  Relative MGMT activity (%): 18.2%
  MGMT activity (a.u.) O^6BG: 0.70 a.u.
  MGMT activity (% of WT) O^6BG: 49.1 % of WT
  Ratio percent reporter expression (O^6BG/DMSO): 5.49
  O^6BG resistance relative to WT (%): −31.0%

B2: G160H: MGMT polypeptide with mutation G160H (protein)
chain: MDKDCEMKRTTLDSPLGKLELSGCEQGLHEIKLLGKGTSAADAVEVPAPAAVLGGPEPLMQCTAWLNAYFHQPEAIEEFPVPALHHPVFQQESFTRQVLWKLLKVVKFGEVISYQQLAALAGNPKAARAVGGAMRGNPVPILIPCHRVVCSSGAVGNYSHGLAVKEWLLAHEGHRLGKPGLGGSSGLAGAWLKGAGATSGSPPAGRN
  Reporter expression (%) mean, O^6BG: 21.3%
  Reporter expression (%) mean, DMSO: 10.3%
  MGMT activity (a.u.) DMSO: 9.68 a.u.
  MGMT activity (% of WT) DMSO: 179.0 % of WT
  Relative MGMT activity (%): 48.4%
  MGMT activity (a.u.) O^6BG: 4.69 a.u.
  MGMT activity (% of WT) O^6BG: 328.1 % of WT
  Ratio percent reporter expression (O^6BG/DMSO): 2.06
  O^6BG resistance relative to WT (%): 83.3%

B3: wild-type MGMT: reference MGMT polypeptide according to SEQ ID NO: 1 (GenBank NP_002403.3); used as control (protein)
chain: MDKDCEMKRTTLDSPLGKLELSGCEQGLHEIKLLGKGTSAADAVEVPAPAAVLGGPEPLMQCTAWLNAYFHQPEAIEEFPVPALHHPVFQQESFTRQVLWKLLKVVKFGEVISYQQLAALAGNPKAARAVGGAMRGNPVPILIPCHRVVCSSGAVGNYSGGLAVKEWLLAHEGHRLGKPGLGGSSGLAGAWLKGAGATSGSPPAGRN
modifications: REGION 1..207: note = Wild Type MGMT
notes: used as control
  Reporter expression (%) mean, O^6BG: 70.0%
  Reporter expression (%) mean, DMSO: 18.5%
  MGMT activity (a.u.) DMSO: 5.41 a.u.
  MGMT activity (% of WT) DMSO: 100.0 % of WT
  Relative MGMT activity (%): 26.4%
  MGMT activity (a.u.) O^6BG: 1.43 a.u.
  MGMT activity (% of WT) O^6BG: 100.0 % of WT
  Ratio percent reporter expression (O^6BG/DMSO): 3.78
  O^6BG resistance relative to WT (%): 0.0%

B4: G160E: MGMT polypeptide with mutation G160E (protein)
chain: MDKDCEMKRTTLDSPLGKLELSGCEQGLHEIKLLGKGTSAADAVEVPAPAAVLGGPEPLMQCTAWLNAYFHQPEAIEEFPVPALHHPVFQQESFTRQVLWKLLKVVKFGEVISYQQLAALAGNPKAARAVGGAMRGNPVPILIPCHRVVCSSGAVGNYSEGLAVKEWLLAHEGHRLGKPGLGGSSGLAGAWLKGAGATSGSPPAGRN
  Reporter expression (%) mean, O^6BG: 63.3%
  Reporter expression (%) mean, DMSO: 15.3%
  MGMT activity (a.u.) DMSO: 6.56 a.u.
  MGMT activity (% of WT) DMSO: 121.3 % of WT
  Relative MGMT activity (%): 24.1%
  MGMT activity (a.u.) O^6BG: 1.58 a.u.
  MGMT activity (% of WT) O^6BG: 110.7 % of WT
  Ratio percent reporter expression (O^6BG/DMSO): 4.15
  O^6BG resistance relative to WT (%): −8.8%

B5: A170S: MGMT polypeptide with mutation A170S (protein)
chain: MDKDCEMKRTTLDSPLGKLELSGCEQGLHEIKLLGKGTSAADAVEVPAPAAVLGGPEPLMQCTAWLNAYFHQPEAIEEFPVPALHHPVFQQESFTRQVLWKLLKVVKFGEVISYQQLAALAGNPKAARAVGGAMRGNPVPILIPCHRVVCSSGAVGNYSGGLAVKEWLLSHEGHRLGKPGLGGSSGLAGAWLKGAGATSGSPPAGRN
  Reporter expression (%) mean, O^6BG: 85.0%
  Reporter expression (%) mean, DMSO: 15.8%
  MGMT activity (a.u.) DMSO: 6.35 a.u.
  MGMT activity (% of WT) DMSO: 117.5 % of WT
  Relative MGMT activity (%): 18.5%
  MGMT activity (a.u.) O^6BG: 1.18 a.u.
  MGMT activity (% of WT) O^6BG: 82.4 % of WT
  Ratio percent reporter expression (O^6BG/DMSO): 5.40
  O^6BG resistance relative to WT (%): −29.9%

B6: G160A: MGMT polypeptide with mutation G160A (protein)
chain: MDKDCEMKRTTLDSPLGKLELSGCEQGLHEIKLLGKGTSAADAVEVPAPAAVLGGPEPLMQCTAWLNAYFHQPEAIEEFPVPALHHPVFQQESFTRQVLWKLLKVVKFGEVISYQQLAALAGNPKAARAVGGAMRGNPVPILIPCHRVVCSSGAVGNYSAGLAVKEWLLAHEGHRLGKPGLGGSSGLAGAWLKGAGATSGSPPAGRN
  Reporter expression (%) mean, O^6BG: 74.5%
  Reporter expression (%) mean, DMSO: 15.5%
  MGMT activity (a.u.) DMSO: 6.45 a.u.
  MGMT activity (% of WT) DMSO: 119.4 % of WT
  Relative MGMT activity (%): 20.8%
  MGMT activity (a.u.) O^6BG: 1.34 a.u.
  MGMT activity (% of WT) O^6BG: 94.0 % of WT
  Ratio percent reporter expression (O^6BG/DMSO): 4.81
  O^6BG resistance relative to WT (%): −21.3%

B7: G160D: MGMT polypeptide with mutation G160D (protein)
chain: MDKDCEMKRTTLDSPLGKLELSGCEQGLHEIKLLGKGTSAADAVEVPAPAAVLGGPEPLMQCTAWLNAYFHQPEAIEEFPVPALHHPVFQQESFTRQVLWKLLKVVKFGEVISYQQLAALAGNPKAARAVGGAMRGNPVPILIPCHRVVCSSGAVGNYSDGLAVKEWLLAHEGHRLGKPGLGGSSGLAGAWLKGAGATSGSPPAGRN
  Reporter expression (%) mean, O^6BG: 72.8%
  Reporter expression (%) mean, DMSO: 23.0%
  MGMT activity (a.u.) DMSO: 4.35 a.u.
  MGMT activity (% of WT) DMSO: 80.4 % of WT
  Relative MGMT activity (%): 31.6%
  MGMT activity (a.u.) O^6BG: 1.37 a.u.
  MGMT activity (% of WT) O^6BG: 96.2 % of WT
  Ratio percent reporter expression (O^6BG/DMSO): 3.16
  O^6BG resistance relative to WT (%): 19.6%

B8: G160P: MGMT polypeptide with mutation G160P (protein)
chain: MDKDCEMKRTTLDSPLGKLELSGCEQGLHEIKLLGKGTSAADAVEVPAPAAVLGGPEPLMQCTAWLNAYFHQPEAIEEFPVPALHHPVFQQESFTRQVLWKLLKVVKFGEVISYQQLAALAGNPKAARAVGGAMRGNPVPILIPCHRVVCSSGAVGNYSPGLAVKEWLLAHEGHRLGKPGLGGSSGLAGAWLKGAGATSGSPPAGRN
  Reporter expression (%) mean, O^6BG: 47.5%
  Reporter expression (%) mean, DMSO: 22.8%
  MGMT activity (a.u.) DMSO: 4.40 a.u.
  MGMT activity (% of WT) DMSO: 81.3 % of WT
  Relative MGMT activity (%): 47.9%
  MGMT activity (a.u.) O^6BG: 2.11 a.u.
  MGMT activity (% of WT) O^6BG: 147.4 % of WT
  Ratio percent reporter expression (O^6BG/DMSO): 2.09
  O^6BG resistance relative to WT (%): 81.2%
